{
  "source": "paper PMC12615776",
  "about": "“Conformational alteration of DOCK5•ELMO1 signalosome on lipid membrane” (Communications Biology, 2025)",
  "binders": {"B1": {"name": "human RhoG (residues 1–191, Q61L mutant), C-terminal His10 (natural protein)", "chain": "not shown", "notes": "human RhoG, residues 1–191, Q61L; 10 μM GTP and 1 mM MgCl2 were added during purification to obtain the active form; Anchored to the lipid monolayer through His10 and DOGS-NTA(Ni); also called RhoG^Q61L; constitutively active mutant of RhoG; source: E. coli cell-free protein synthesis, purified (HisTrap, TEV cleavage, second HisTrap, SEC Superdex 75); not shown: N11 (modified natural …)"}},
  "target": "T1, human ELMO1, full length (residues 1–727), tag cleaved (human, UniProt Q92556 1-727)",
  "T1 construct": "human ELMO1, full length, residues 1–727; Purified as a complex with DOCK5; also called engulfment and cell motility 1; source: FreeStyle 293-F cells, co-expressed with DOCK5, purified (Streptavidin Sepharose, TEV cleavage, SEC Superose 6); not shown: FLAG, N-terminal, cleaved",
  "T1 sequence (Q92556 whole entry, the tested form may be a part)": "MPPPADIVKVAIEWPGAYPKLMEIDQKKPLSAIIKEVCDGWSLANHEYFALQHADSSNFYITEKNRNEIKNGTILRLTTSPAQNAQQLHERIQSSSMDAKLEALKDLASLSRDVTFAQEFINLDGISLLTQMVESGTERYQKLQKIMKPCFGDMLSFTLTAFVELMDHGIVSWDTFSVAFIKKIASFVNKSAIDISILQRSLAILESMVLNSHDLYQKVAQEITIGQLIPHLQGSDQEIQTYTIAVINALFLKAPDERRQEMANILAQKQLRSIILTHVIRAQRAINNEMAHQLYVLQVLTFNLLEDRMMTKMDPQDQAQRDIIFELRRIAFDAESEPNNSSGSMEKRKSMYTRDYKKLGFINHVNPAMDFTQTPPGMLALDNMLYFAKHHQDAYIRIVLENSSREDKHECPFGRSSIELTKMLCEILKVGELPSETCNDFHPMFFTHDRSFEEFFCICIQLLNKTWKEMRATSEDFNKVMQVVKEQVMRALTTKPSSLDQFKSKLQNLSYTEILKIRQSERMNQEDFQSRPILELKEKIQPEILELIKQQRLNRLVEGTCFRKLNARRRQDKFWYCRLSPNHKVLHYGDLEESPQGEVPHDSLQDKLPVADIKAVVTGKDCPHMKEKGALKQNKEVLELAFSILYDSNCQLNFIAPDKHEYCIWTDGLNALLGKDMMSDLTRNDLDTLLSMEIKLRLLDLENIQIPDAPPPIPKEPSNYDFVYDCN",
  "test": "cryo-EM structure; purified DOCK5•ELMO1 complex mixed with a two-fold molar excess of Rac1^G15A-His10 and RhoG^Q61L-His10, pre-incubated on ice at least 1 h in 20 mM HEPES-NaOH pH 7.0, 150 mM NaCl, 1 mM MgCl2 (final 0.4 μM); bound to a lipid monolayer-coated grid [67PC/21PA/6PIP3/6DOGS-NTA Ni (mol%)]; single-particle analysis, C2, 6.98 Å (local 7.52 Å)",
  "conditions": "both partners purified",
  "data": [
    {"binder": "B1", "values": [
      {"measurement": "binding result", "result": "binds"}
    ]}
  ]
}
